Source: patent US9879306B2, “Luciferase biosensors for cAMP” (PROMEGA CORPORATION, priority 2008, dated 2018)

Key:
[1] = test system: cyclic AMP dependent protein kinase catalytic subunit; conditions: serine at position 543; alkaline phosphatase restored activity; cited from earlier work
[2] = test system: catalytic subunit of protein kinase A; conditions: reversed by phosphatase; cited from earlier work
dopamine D2 receptor = molecular target: T1, dopamine D2 receptor (Homo sapiens, UniProt P14416); assay: Inhibitory response to dopamine with or without forskolin in HEK293 cells stably expressing D2 (Gi pathway); format: cell-based; conditions: relative to biosensor with GSSGGSGGSGGG linker
T1 construct: expressed in transfected cells
Excerpt: (§1) A mutant cAMP biosensor (termed L9; SEQ ID NO: 104; SEQ ID NO: 105) having a mutant RIIβB binding site (substitutions E284A and V316I) and a modified linker sequence (GSIAGCGDAGEG, SEQ ID NO: 57; SEQ ID NO: 128) was screened for increased light output and increased fold response when expressed in mammalian cells (primary sequence Met-(Photinus pyralis luciferase residues 359-544)-(GSIAGCGDAGEG (SEQ ID NO: 57; SEQ ID NO: SEQ ID NO: 128))-(RIIβB E284A, V316I)-(Photinus pyralis luciferase residues 4-355)-Val). For a stimulatory response, transient expression in HEK293 cells was followed by treatment with 10 μM isoproterenol (agonist of the endogenous beta2-adrenergic receptor). For an inhibitory response, transient expression in HEK293 cells that stably express the dopamine D2 receptor was followed by simultaneous treatment with dopamine in the presence or absence of forskolin

[3] = molecular target: T2, endogenous beta2-adrenergic receptor (Homo sapiens, UniProt P07550); assay: Stimulatory response to isoproterenol in HEK293 cells (Gs pathway); format: cell-based; conditions: 10 μM isoproterenol, relative to biosensor with GSSGGSGGSGGG linker
T2 construct: agonist of the endogenous beta2-adrenergic receptor; endogenous in cells; host or cells: HEK293
Excerpt: as §1

GPR41 [4] = assay: Sodium proprionate CRC with biosensor variants in HEK293 cells stably expressing GPR41; format: cell-based; conditions: ratio of RLU of FSK treated well to untreated well
Method in brief: (§2)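 Luminescent cAMP readout: EC50 and fold response from a sodium propionate concentration-response, tested ± FSK. Luminescence was read before compound and 30 min after. Cells were HEK293 stably expressing GPR41, carrying a transiently transfected cAMP biosensor variant and preloaded 2 h at room temperature with 5 mM EF-luc in CO2-independent medium plus 10% FBS.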

GPR41 [5] = molecular target: T3, GPR41 (Homo sapiens, UniProt O14843); assay: as above; format: cell-based
T3 sequence (O14843 1-346): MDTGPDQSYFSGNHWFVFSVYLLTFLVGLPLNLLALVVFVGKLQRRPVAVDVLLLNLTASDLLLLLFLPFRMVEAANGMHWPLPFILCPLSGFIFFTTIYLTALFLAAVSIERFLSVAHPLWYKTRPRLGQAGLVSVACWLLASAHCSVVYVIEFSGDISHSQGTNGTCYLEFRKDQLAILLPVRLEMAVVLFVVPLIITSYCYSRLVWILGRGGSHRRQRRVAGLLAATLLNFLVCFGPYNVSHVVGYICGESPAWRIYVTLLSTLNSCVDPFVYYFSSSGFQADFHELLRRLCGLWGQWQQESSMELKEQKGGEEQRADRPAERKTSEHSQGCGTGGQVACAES
Method in brief: as §2

T1 sequence (P14416 whole entry, species assumed): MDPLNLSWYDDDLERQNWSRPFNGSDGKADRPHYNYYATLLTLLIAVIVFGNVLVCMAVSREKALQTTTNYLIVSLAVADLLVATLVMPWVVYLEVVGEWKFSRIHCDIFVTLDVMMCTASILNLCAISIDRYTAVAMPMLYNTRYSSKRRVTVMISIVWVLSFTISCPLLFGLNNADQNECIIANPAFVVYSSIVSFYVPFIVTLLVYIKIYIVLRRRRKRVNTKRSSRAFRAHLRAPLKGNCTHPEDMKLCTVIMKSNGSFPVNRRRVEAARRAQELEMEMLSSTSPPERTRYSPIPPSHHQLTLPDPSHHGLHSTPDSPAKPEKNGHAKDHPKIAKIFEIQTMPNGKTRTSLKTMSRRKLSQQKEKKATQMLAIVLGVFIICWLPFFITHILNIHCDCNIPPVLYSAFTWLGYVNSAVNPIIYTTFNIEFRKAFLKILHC

LRRASLG
reduction of activity on addition of kinase catalytic subunit [1]: 30%

RRFS: Photinus pyralis luciferase with valine 217 mutated to arginine to generate the site RRFS (Sala-Newby et al.)
decrease of activity when phosphorylated [2]: up to 80%

B1: L9: cAMP biosensor, RIIβB E284A and V316I, linker GSIAGCGDAGEG; SEQ ID NO:104, 105 (protein)
chain: MPGAVGKVVPFFEAKVVDLDTGKTLGVNQRGELCVRGPMIMSGYVNNPEATNALIDKDGWLHSGDIAYWDEDEHFFIVDRLKSLIKYKGYQVAPAELESILLQHPNIFDAGVAGLPDDDAGELPAAVVVLEHGKTMTEKEIVDYVASQVTTAKKLRGGVVFVDEVPKGLTGKLDARKIREILIKAKKGSIAGCGDAGEGMYESFIESLPFLKSLEFSARLKVVDVIGTKVYNDGEQIIAQGDSADSFFIIESGEVKITMKRKGKSEVEENGAVEIARCSRGQYFGELALVTNKPRAASAHAIGTVKCLAMDVQAFERLLGPCMEIMKRNIATYEEQLVALFGTNMDIVAKNIKKGPAPFYPLEDGTAGEQLHKAMKRYALVPGTIAFTDAHIEVDITYAEYFEMSVRLAEAMKRYGLNTNHRIVVCSENSLQFFMPVLGALFIGVAVAPANDIYNERELLNSMGISQPTVVFVSKKGLQKILNVQKKLPIIQKIIIMDSKTDYQGFQSMYTFVTSHLPPGFNEYDFVPESFDRDKTIALIMNSSGSTGLPKGVALPHRTACVRFSHARDPIFGNQIIPDTAILSVVPFHHGFGMFTTLGYLICGFRVVLMYRFEEELFLRSLQDYKIQSALLVPTLFSFFAKSTLIDKYDLSNLHEIASGGAPLSKEVGEAVAKRFHLPGIRQGYGLTETTSAILITPEGV
fold response for the Gi pathway (dopamine D2 receptor): improved fold response | fold response to isoproterenol induction of the Gs pathway [3]: improved fold response | Fold Signal Change (GPR41 [4]): 40.9 fold | Fold Response Na proprionate + FSK(1 μM) (GPR41 [5]; with FSK 1 μM): 2.60 fold | Fold Response Na proprionate (GPR41 [5]; without FSK, ratio of induced to uninduced signal): 2.73 fold
